Data on four molecules can be found in patent US20220144960A1 (NANJING LEGEND BIOTECH, published 2022).

Like-named read-outs stand apart in the source and are kept apart here.

Assay in all cases: cell-based or functional assay
For test [1], the target named is T1, CD30 on CD30-expressing tumor cell lines (HH, MJ, H9) (UniProt P28908 19-595).
T1 sequence (looked up): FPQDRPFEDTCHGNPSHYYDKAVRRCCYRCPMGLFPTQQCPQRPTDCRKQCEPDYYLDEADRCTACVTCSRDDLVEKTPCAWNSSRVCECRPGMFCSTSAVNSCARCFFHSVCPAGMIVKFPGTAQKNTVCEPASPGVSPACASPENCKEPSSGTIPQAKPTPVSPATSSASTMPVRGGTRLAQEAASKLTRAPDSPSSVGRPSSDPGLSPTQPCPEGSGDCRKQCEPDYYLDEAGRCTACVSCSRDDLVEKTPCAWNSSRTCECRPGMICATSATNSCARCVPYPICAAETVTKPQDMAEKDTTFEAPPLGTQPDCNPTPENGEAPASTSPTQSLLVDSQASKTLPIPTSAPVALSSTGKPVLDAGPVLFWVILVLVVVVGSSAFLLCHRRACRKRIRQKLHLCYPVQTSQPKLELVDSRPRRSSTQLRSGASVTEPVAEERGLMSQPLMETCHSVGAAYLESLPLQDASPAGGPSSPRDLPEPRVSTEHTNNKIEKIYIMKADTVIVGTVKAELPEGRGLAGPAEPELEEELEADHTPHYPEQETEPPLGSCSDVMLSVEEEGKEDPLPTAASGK

Test [2] addresses T1, CD30 on CD30-expressing tumor cell …. This is another data set of the same source.
For test [3] the target is unchanged. The source holds these as a separate data set.

B1: AS48542dis-bbz CAR (other)
chain: QMQLVESGGGSVQAGETLRLSCTTSAFTFDGPDMAWYRQAPGNECVLVSIISADGRTYYADSVKGRFTISRDNAKNTVFLNLNSLQPEDTAVYYCALDPRKNCRGGYCCANWGPGTQVTVSSGGGGSQMQLVESGGGSVQAGETLRLSCTTSAFTFDGPDMAWYRQAPGNECVLVSIISADGRTYYADSVKGRFTISRDNAKNTVFLNLNSLQPEDTAVYYCALDPRKNCRGGYCCANWGPGTQVTVSSTTTPAPRPPTPAPTIASQPLSLRPEACRPAAGGAVHTRGLDFACDIYIWAPLAGTCGVLLLSLVITLYCKRGRKKLLYIFKQPFMRPVQTTQEEDGCSCRFPEEEEGGCELRVKFSRSADAPAYKQGQNQLYNELNLGRREEYDVLDKRRGRDPEMGGKPRRKNPQEGLYNELQKDKMAEAYSEIGMKGERRRGKGHDGLYQGLSTATKDTYDALHMQALPPR
For the molecule B1, in test [1], the “% H9 cell lysis E:T = 5:1 (LDH assay, CAR T cells)” value was found to be 81% and the “% MJ cell lysis E:T = 1:1 (LDH assay, CAR T cells)” value was 56.4%.

B2: AS48542bbz CAR (other)
chain: QMQLVESGGGSVQAGETLRLSCTTSAFTFDGPDMAWYRQAPGNECVLVSIISADGRTYYADSVKGRFTISRDNAKNTVFLNLNSLQPEDTAVYYCALDPRKNCRGGYCCANWGPGTQVTVSSTTTPAPRPPTPAPTIASQPLSLRPEACRPAAGGAVHTRGLDFACDIYIWAPLAGTCGVLLLSLVITLYCKRGRKKLLYIFKQPFMRPVQTTQEEDGCSCRFPEEEEGGCELRVKFSRSADAPAYKQGQNQLYNELNLGRREEYDVLDKRRGRDPEMGGKPRRKNPQEGLYNELQKDKMAEAYSEIGMKGERRRGKGHDGLYQGLSTATKDTYDALHMQALPPR
Consider B2, for which, in test [1], the “% H9 cell lysis E:T = 5:1 (LDH assay, CAR T cells)” value came to 64% and the “% MJ cell lysis E:T = 1:1 (LDH assay, CAR T cells)” value is 58.5%. For the same molecule, in test [2], the “% H9 cell lysis E:T = 2:1 (LDH assay, CAR T cells)” value was 50% and the “% MJ cell lysis E:T = 1:1 (LDH assay, CAR T cells)” value came to 55%. In addition, the “% MJ cell lysis E:T = 0.5:1 (LDH assay, CAR T cells)” value in test [3] came out at 58.4%.

B3: AS48542dil-bbz CAR (other)
chain: QMQLVESGGGSVQAGETLRLSCTTSAFTFDGPDMAWYRQAPGNECVLVSIISADGRTYYADSVKGRFTISRDNAKNTVFLNLNSLQPEDTAVYYCALDPRKNCRGGYCCANWGPGTQVTVSSGGGGSGGGGSGGGGSQMQLVESGGGSVQAGETLRLSCTTSAFTFDGPDMAWYRQAPGNECVLVSIISADGRTYYADSVKGRFTISRDNAKNTVFLNLNSLQPEDTAVYYCALDPRKNCRGGYCCANWGPGTQVTVSSTTTPAPRPPTPAPTIASQPLSLRPEACRPAAGGAVHTRGLDFACDIYIWAPLAGTCGVLLLSLVITLYCKRGRKKLLYIFKQPFMRPVQTTQEEDGCSCRFPEEEEGGCELRVKFSRSADAPAYKQGQNQLYNELNLGRREEYDVLDKRRGRDPEMGGKPRRKNPQEGLYNELQKDKMAEAYSEIGMKGERRRGKGHDGLYQGLSTATKDTYDALHMQALPPR
B3: in test [1], the “% H9 cell lysis E:T = 5:1 (LDH assay, CAR T cells)” value stood at 84% and the “% MJ cell lysis E:T = 1:1 (LDH assay, CAR T cells)” value is 64.3%.

B4: AS53574-AS48542bil-bbz CAR (other)
chain: QVKLVESGGGSVQAGGSLRLSCAASGYIYSSNCMGWFRQAPGKEREWVARIHTGSGSTYYADSVKGRFTISQDNAKNTVYLQMNSLRPEDTAMYDCAAGRVVLGAVVCTNEYWGQGTQVTVSSGGGGSGGGGSGGGGSQMQLVESGGGSVQAGETLRLSCTTSAFTFDGPDMAWYRQAPGNECVLVSIISADGRTYYADSVKGRFTISRDNAKNTVFLNLNSLQPEDTAVYYCALDPRKNCRGGYCCANWGPGTQVTVSSTTTPAPRPPTPAPTIASQPLSLRPEACRPAAGGAVHTRGLDFACDIYIWAPLAGTCGVLLLSLVITLYCKRGRKKLLYIFKQPFMRPVQTTQEEDGCSCRFPEEEEGGCELRVKFSRSADAPAYKQGQNQLYNELNLGRREEYDVLDKRRGRDPEMGGKPRRKNPQEGLYNELQKDKMAEAYSEIGMKGERRRGKGHDGLYQGLSTATKDTYDALHMQALPPR
In the case of B4, in test [1], the “% H9 cell lysis E:T = 5:1 (LDH assay, CAR T cells)” value came out at 54% and the “% MJ cell lysis E:T = 1:1 (LDH assay, CAR T cells)” value was determined as 60.5%.
